# T1: LRP6 E1E4 (Homo sapiens, UniProt O75581)
# T1 construct: construct E1E4-amino acids A20-Q1253 of LPR6; made in house; host or cells: Tni insect cells (baculovirus, secreted)
# T1 sequence (O75581 20-1253): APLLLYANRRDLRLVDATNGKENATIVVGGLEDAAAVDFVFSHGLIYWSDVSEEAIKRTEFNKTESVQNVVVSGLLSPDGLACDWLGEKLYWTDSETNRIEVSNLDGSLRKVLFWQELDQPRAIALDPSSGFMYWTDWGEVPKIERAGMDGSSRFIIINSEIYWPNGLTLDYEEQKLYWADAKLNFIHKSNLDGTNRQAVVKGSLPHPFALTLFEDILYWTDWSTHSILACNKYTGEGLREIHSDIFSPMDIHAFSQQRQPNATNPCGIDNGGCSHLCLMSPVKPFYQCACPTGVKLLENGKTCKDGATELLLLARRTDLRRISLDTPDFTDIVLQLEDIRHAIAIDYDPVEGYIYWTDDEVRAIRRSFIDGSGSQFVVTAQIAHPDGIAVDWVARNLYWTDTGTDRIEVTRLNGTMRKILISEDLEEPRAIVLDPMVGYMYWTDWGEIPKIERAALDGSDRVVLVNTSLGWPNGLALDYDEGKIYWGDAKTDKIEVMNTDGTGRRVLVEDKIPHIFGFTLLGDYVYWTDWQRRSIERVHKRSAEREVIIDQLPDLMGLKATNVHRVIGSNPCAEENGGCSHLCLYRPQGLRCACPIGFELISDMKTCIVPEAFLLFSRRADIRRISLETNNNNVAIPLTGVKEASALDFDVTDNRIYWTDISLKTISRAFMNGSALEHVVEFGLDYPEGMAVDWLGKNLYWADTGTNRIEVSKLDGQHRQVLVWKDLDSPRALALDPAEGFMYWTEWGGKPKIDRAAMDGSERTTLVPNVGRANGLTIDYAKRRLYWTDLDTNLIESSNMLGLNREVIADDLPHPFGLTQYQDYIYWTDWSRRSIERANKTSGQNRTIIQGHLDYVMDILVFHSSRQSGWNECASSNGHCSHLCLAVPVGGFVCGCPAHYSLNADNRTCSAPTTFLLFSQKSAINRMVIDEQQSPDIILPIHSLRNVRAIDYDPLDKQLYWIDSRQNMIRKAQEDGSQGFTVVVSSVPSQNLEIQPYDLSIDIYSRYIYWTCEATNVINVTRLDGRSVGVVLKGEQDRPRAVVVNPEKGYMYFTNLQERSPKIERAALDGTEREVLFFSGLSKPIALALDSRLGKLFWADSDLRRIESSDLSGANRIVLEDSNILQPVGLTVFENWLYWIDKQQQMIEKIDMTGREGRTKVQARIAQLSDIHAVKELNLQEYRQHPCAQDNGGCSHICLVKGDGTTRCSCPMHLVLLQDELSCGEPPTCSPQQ
# B1: Dkk1 Ile42Glu (ligand, human, UniProt O94907 32-266, looked up)
# chain: TLNSVLNSNAEKNLPPPLGGAAGHPGSAVSAAPGILYPGGNKYQTIDNYQPYPCAEDEECGTDEYCASPTRGGDAGVQICLACRKRRKRCMRHAMCCPGNYCKNGICVSSDQNHFRGEIEETITESFGNDHSTLDGYSRRTTLSSKMYHTKGQEGSVCLRSSDCASGLCCARHFWSKICKPVLKEGQVCTKHRRKGSHGLEIFQRCYCGEGLSCRIQKDHHQASNSSRLHTCQRH
# notes: also called Dkk1 I42E
# B2: Dkk1 K211E (ligand, human, UniProt O94907 32-266, looked up)
# chain: TLNSVLNSNAIKNLPPPLGGAAGHPGSAVSAAPGILYPGGNKYQTIDNYQPYPCAEDEECGTDEYCASPTRGGDAGVQICLACRKRRKRCMRHAMCCPGNYCKNGICVSSDQNHFRGEIEETITESFGNDHSTLDGYSRRTTLSSKMYHTKGQEGSVCLRSSDCASGLCCARHFWSKICEPVLKEGQVCTKHRRKGSHGLEIFQRCYCGEGLSCRIQKDHHQASNSSRLHTCQRH
# notes: also called Dkk1 Lys211Glu
# Key:
# LRP6 E1E4 = target: T1, LRP6 E1E4; assay: Biolayer interferometry binding to LRP6 E1E4
# Protocol: Binding kinetics were measured by biolayer interferometry using an Octet Red instrument (ForteBio) as previously described (11). Streptavidin (SA) biosensors were loaded with biotinylated hLRP6 in 50 mMTris, pH 8, 300 mM NaCl, 5% (v/v) glycerol, and 0.05% (w/v) Triton X-100. The loaded biosensors were washed in the same buffer before carrying out association and dissociation measurements for the indicated times. The Kd of each interaction was determined using steady state-analysis through the Octet Red software v6.3. Each reported value represents an average of three or more experiments at different concentrations, with a fitted experimental curve for which the square of the correlation coefficient (R^2) is above 0.96.
# The interaction of the different Dkks and sclerostin with various domains of LRP6 was measured using a biolayer interferometry assay (11). Purified receptors contained individual β-propeller-EGF-like units (E1, E2, or E4), two β-propellers (E1E2 or E3E4), or four β-propellers (E1E4))—as follows:
# Human LRP6: construct E1E4-amino acids A20-Q1253 of LPR6; construct E1E2-amino acids A20-E631 of LPR6; construct E3E4 amino acids E631-Q1253 of LPR6; construct E1-amino acids A20-D325 of LPR6; construct E2-amino acids […]-E631 of LPR6; construct E4-T933-Q1253. The individual LRP6 β-propeller E3 could not be expressed.
# Wnt1-dependent signaling = assay: Wnt-dependent TOPbrite luciferase reporter assay, cells transfected with Wnt1; type: cell-based; conditions: cells stably transfected with reporter, transiently with Wnt1
# Protocol: FIG. 12. Induction of a Wnt/β-catenin reporter in the presence or absence of wild-type and mutant inhibitors. Cells were transfected by Wnt1 (binds to LRP6 E1E2). Dkk1 and sclerostin variants, or the control inhibitor Fz8 CRD, were used at the indicated doses.
# Wnt signaling was assessed either in mouse fibroblast L-cells or in HEK293s cells. The luciferase reporter assay in 293 cells was performed as described (52). The mouse fibroblast L-cell imaging assay was conducted essentially as described(53). Cells were treated with Wnt3a, Fz8 CRD ((US Patent Publication 20080299136; (54), LRP6, or Dkk1, or combinations of these proteins, as indicated and processed after an additional 6 h at 37° C./5% CO2.
# To test whether the observed effects on binding between purified proteins were relevant to cellular signaling, Dkk1 and sclerostin activities were tested further in a Wnt-dependent TOPbrite luciferase reporter assay (52). Cells stably transfected with reporter were transfected transiently with Wnt1. The Wnt-transfected cells were treated with purified Dkk1 or sclerostin variants, and the effect on reporter induction was measured (FIG. 12). […] This is consistent with earlier observations that Wnt1 belongs to a class of Wnts signaling through the E1E2 portion of to LRP5/6 (11, 52). The Dkk1 and sclerostin mutants show activities consistent with their binding to LRP6 (FIG. 12). Sclerostin Ile119Glu (“NXI” motif) is impaired relative to wild-type in its ability to inhibit Wnt1-driven signaling, as is Dkk1 Ile42Glu.
Molecule,binding to LRP6 E1E4 (in words) (LRP6 E1E4),inhibition of Wnt1-dependent signaling (reporter induction) (Wnt1-dependent signaling)
"sclerostin: Sclerostin protein, Wnt pathway inhibitor, expressed in insect cells (LPNAIGR)",binds,strong inhibition
"Dkk1: Dickkopf 1 protein, Wnt pathway inhibitor, expressed in insect cells (NSNAIKN)",,strong inhibition
B1,retain binding,impaired
B2,retain binding,efficiently inhibits

# — patent US20140235820A1, “METHODS AND COMPOSITIONS FOR MODULATING THE Wnt PATHWAY” (Genentech, Inc., priority 2010, published 2014)
